From patent US20140087995A1 (published 2014)
Numbered stars: 1 amine (or outer) side, 2 acyl side, 3 side chain; on linkers, the order of the positions; unused ones are H or OH. Bridge positions count the residues as written; N and C are the ends. * marks the point of attachment. C20 diacid = O=C(O)CCCCCCCCCCCCCCCCCCC(=O)*; γGlu = O=C(O)[C@H](CCC(=O)[*:2])N[*:1]; AEEA = NCCOCCOCC(=O)O

T1: human amylin receptor (human, UniProt P30988 25-474; O60896 24-148, limits assumed)
T1 construct: whole, on cells; Calcitonin receptor plus RAMP-3 gives the amylin 3(a) receptor; membranes of Amylin 3(a)/CRE-luc cells were used; also called hAmylin-R; hAmylinR
T1 sequence (looked up) 1: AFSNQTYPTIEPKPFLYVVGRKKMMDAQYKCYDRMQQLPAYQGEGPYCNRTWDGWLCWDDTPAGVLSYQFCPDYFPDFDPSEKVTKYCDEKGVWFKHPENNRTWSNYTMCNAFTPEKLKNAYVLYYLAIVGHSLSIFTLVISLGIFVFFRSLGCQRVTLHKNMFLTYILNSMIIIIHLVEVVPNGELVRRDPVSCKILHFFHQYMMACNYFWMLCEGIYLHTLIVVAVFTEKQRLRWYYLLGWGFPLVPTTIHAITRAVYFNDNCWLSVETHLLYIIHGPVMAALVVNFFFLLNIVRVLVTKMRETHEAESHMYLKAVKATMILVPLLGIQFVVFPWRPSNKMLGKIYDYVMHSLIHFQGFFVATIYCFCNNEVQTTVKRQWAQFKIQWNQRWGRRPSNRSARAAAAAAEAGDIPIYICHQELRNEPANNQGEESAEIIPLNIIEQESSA
T1 sequence (looked up) 2: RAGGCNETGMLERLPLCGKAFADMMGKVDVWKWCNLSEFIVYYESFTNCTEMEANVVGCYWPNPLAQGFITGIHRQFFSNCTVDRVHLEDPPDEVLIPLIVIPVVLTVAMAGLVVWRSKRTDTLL


Target: T1, human amylin receptor
Test: SPA competition binding, displacement of 125I-rat amylin from membranes with human amylin 3(a) receptor (Assay V)
Protocol: The binding assay was performed using scintillation proximity assay (SPA) beads (RPNQ0001) from PerkinElmer and cell membranes from the Amylin 3(a)/CRE-luc cells (as described in Assay (II)) were used. Membranes were prepared in the following way; the cells were rinsed with PBS and incubated with Versene for approximately 5 min before harvesting. The cells were flushed with PBS and the cell-suspension was centrifuged for 5 min at 1000 rpm. Cells were homogenized (ultrathurrax) in a buffer containing 20 mM Na-HEPES and 10 mM EDTA (pH 7.4) and centrifuged at 20.000 rpm for 15 min. The resulting pellet was resuspended, homogenized and centrifuged (20.000 rpm, 15 min) in a buffer containing 20 mM Na-HEPES and 0.1 mM EDTA (pH 7.4, buffer 2). The resulting pellet was resuspended in buffer 2 and protein concentration was measured (BCA protein Assay, Pierce). The homogenate was kept cold during the whole procedure. The membranes were kept at −80° C. until use. The assay was performed in a 384 well Optiplate (PerkinElmer) in a total volume of 40 ul. Membranes were mixed with SPA beads. Final concentration of membranes 35 ng/μL final and SPA beads was 0.05 mg/well. Test-compounds were dissolved in DMSO and further diluted in assay buffer (50 mM Hepes, pH 7.4, 1 mM CaCl2, 5 mM MgCl₂, 0.1% OA and 0.02% Tween20). […] The final mixture was incubated with shaking at 400 rpm for 120 min at 25° C. prior to centrifugation (1500 rpm, 10 min). Samples were analyzed on TopCounter™ (Packard). The IC₅₀ was calculated using (one site binding competition analysis) GraphPad Prism5 as a measure of receptor affinity.

IC50 [nM]	Binder
0.597	{C20 diacid-γGlu-γGlu}-KCNTATCATQRLAEFLRHSSPNFGAIPSSTNVGSNTY-NH2 (disulfide 2-7; SMILES CC[C@H](C)[C@H](NC(=O)[C@H](C)NC(=O)CNC(=O)[C@H](Cc1ccccc1)NC(=O)[C@H](CC(N)=O)NC(=O)[C@@H]1CCCN1C(=O)[C@H](CO)NC(=O)[C@H](CO)NC(=O)[C@H](Cc1c[nH]cn1)NC(=O)[C@H](CCCNC(=N)N)NC(=O)[C@H](CC(C)C)NC(=O)[C@H](Cc1ccccc1)NC(=O)[C@H](CCC(=O)O)NC(=O)[C@H](C)NC(=O)[C@H](CC(C)C)NC(=O)[C@H](CCCNC(=N)N)NC(=O)[C@H](CCC(N)=O)NC(=O)[C@@H](NC(=O)[C@H](C)NC(=O)[C@@H]1CSSC[C@H](NC(=O)[C@H](CCCCN)NC(=O)CC[C@H](NC(=O)CC[C@H](NC(=O)CCCCCCCCCCCCCCCCCCC(=O)O)C(=O)O)C(=O)O)C(=O)N[C@@H](CC(N)=O)C(=O)N[C@@H]([C@@H](C)O)C(=O)N[C@@H](C)C(=O)N[C@@H]([C@@H](C)O)C(=O)N1)[C@@H](C)O)C(=O)N1CCC[C@H]1C(=O)N[C@@H](CO)C(=O)N[C@@H](CO)C(=O)N[C@H](C(=O)N[C@@H](CC(N)=O)C(=O)N[C@H](C(=O)NCC(=O)N[C@@H](CO)C(=O)N[C@@H](CC(N)=O)C(=O)N[C@H](C(=O)N[C@@H](Cc1ccc(O)cc1)C(N)=O)[C@@H](C)O)C(C)C)[C@@H](C)O, also called 14E, 17R, 21P, 27P)
0.549	KCNTATCATQRLANFLRHSSPNFGAIPSSTNVGHNTY (C20 diacid-gGlu on the alpha amino group of the N-terminal residue; disulfide Cys2-Cys7 and C-terminal amide as in human amylin, also called 17R, 21P, 27P, 34H) [N^α1-[(4S)-4-carboxy-4-(19-carboxynonadecanoylamino)butanoyl]-[Arg17,Pro21,Pro27,His34]-h-amylin]
0.217	{C20 diacid-γGlu-AEEA-AEEA}-KCNTATCATQRLAEFLRHSSPNFGAIPSSTNVGSNTP-NH2 (disulfide 2-7; SMILES CC[C@H](C)[C@H](NC(=O)[C@H](C)NC(=O)CNC(=O)[C@H](Cc1ccccc1)NC(=O)[C@H](CC(N)=O)NC(=O)[C@@H]1CCCN1C(=O)[C@H](CO)NC(=O)[C@H](CO)NC(=O)[C@H](Cc1c[nH]cn1)NC(=O)[C@H](CCCNC(=N)N)NC(=O)[C@H](CC(C)C)NC(=O)[C@H](Cc1ccccc1)NC(=O)[C@H](CCC(=O)O)NC(=O)[C@H](C)NC(=O)[C@H](CC(C)C)NC(=O)[C@H](CCCNC(=N)N)NC(=O)[C@H](CCC(N)=O)NC(=O)[C@@H](NC(=O)[C@H](C)NC(=O)[C@@H]1CSSC[C@H](NC(=O)[C@H](CCCCN)NC(=O)COCCOCCNC(=O)COCCOCCNC(=O)CC[C@H](NC(=O)CCCCCCCCCCCCCCCCCCC(=O)O)C(=O)O)C(=O)N[C@@H](CC(N)=O)C(=O)N[C@@H]([C@@H](C)O)C(=O)N[C@@H](C)C(=O)N[C@@H]([C@@H](C)O)C(=O)N1)[C@@H](C)O)C(=O)N1CCC[C@H]1C(=O)N[C@@H](CO)C(=O)N[C@@H](CO)C(=O)N[C@H](C(=O)N[C@@H](CC(N)=O)C(=O)N[C@H](C(=O)NCC(=O)N[C@@H](CO)C(=O)N[C@@H](CC(N)=O)C(=O)N[C@H](C(=O)N1CCC[C@H]1C(N)=O)[C@@H](C)O)C(C)C)[C@@H](C)O, also called 14E, 17R, 21P, 27P, 37P)
0.577	{C20 diacid-γGlu}-KCNTATCATQRLANFLRHSSPNFGAIPSSTNVGPETY-NH2 (disulfide 2-7; SMILES CC[C@H](C)[C@H](NC(=O)[C@H](C)NC(=O)CNC(=O)[C@H](Cc1ccccc1)NC(=O)[C@H](CC(N)=O)NC(=O)[C@@H]1CCCN1C(=O)[C@H](CO)NC(=O)[C@H](CO)NC(=O)[C@H](Cc1c[nH]cn1)NC(=O)[C@H](CCCNC(=N)N)NC(=O)[C@H](CC(C)C)NC(=O)[C@H](Cc1ccccc1)NC(=O)[C@H](CC(N)=O)NC(=O)[C@H](C)NC(=O)[C@H](CC(C)C)NC(=O)[C@H](CCCNC(=N)N)NC(=O)[C@H](CCC(N)=O)NC(=O)[C@@H](NC(=O)[C@H](C)NC(=O)[C@@H]1CSSC[C@H](NC(=O)[C@H](CCCCN)NC(=O)CC[C@H](NC(=O)CCCCCCCCCCCCCCCCCCC(=O)O)C(=O)O)C(=O)N[C@@H](CC(N)=O)C(=O)N[C@@H]([C@@H](C)O)C(=O)N[C@@H](C)C(=O)N[C@@H]([C@@H](C)O)C(=O)N1)[C@@H](C)O)C(=O)N1CCC[C@H]1C(=O)N[C@@H](CO)C(=O)N[C@@H](CO)C(=O)N[C@H](C(=O)N[C@@H](CC(N)=O)C(=O)N[C@H](C(=O)NCC(=O)N1CCC[C@H]1C(=O)N[C@@H](CCC(=O)O)C(=O)N[C@H](C(=O)N[C@@H](Cc1ccc(O)cc1)C(N)=O)[C@@H](C)O)C(C)C)[C@@H](C)O, also called 17R, 21P, 27P, 34P, 35E)
0.665	KCNTATCATQRLANFLRHSSPNFGAIPSSTNVGRNTY (C20 diacid-gGlu on the alpha amino group of the N-terminal residue; disulfide Cys2-Cys7 and C-terminal amide as in human amylin, also called 17R, 21P, 27P, 34R) [N^α1-[(4S)-4-carboxy-4-(19-carboxynonadecanoylamino)butanoyl]-[Arg17,Pro21,Pro27,Arg34]-h-amylin]
0.61	{C20 diacid-γGlu}-KCNTATCATQRLANFLRHSSPNFGAIPSSTPVGSETY-NH2 (disulfide 2-7; SMILES CC[C@H](C)[C@H](NC(=O)[C@H](C)NC(=O)CNC(=O)[C@H](Cc1ccccc1)NC(=O)[C@H](CC(N)=O)NC(=O)[C@@H]1CCCN1C(=O)[C@H](CO)NC(=O)[C@H](CO)NC(=O)[C@H](Cc1c[nH]cn1)NC(=O)[C@H](CCCNC(=N)N)NC(=O)[C@H](CC(C)C)NC(=O)[C@H](Cc1ccccc1)NC(=O)[C@H](CC(N)=O)NC(=O)[C@H](C)NC(=O)[C@H](CC(C)C)NC(=O)[C@H](CCCNC(=N)N)NC(=O)[C@H](CCC(N)=O)NC(=O)[C@@H](NC(=O)[C@H](C)NC(=O)[C@@H]1CSSC[C@H](NC(=O)[C@H](CCCCN)NC(=O)CC[C@H](NC(=O)CCCCCCCCCCCCCCCCCCC(=O)O)C(=O)O)C(=O)N[C@@H](CC(N)=O)C(=O)N[C@@H]([C@@H](C)O)C(=O)N[C@@H](C)C(=O)N[C@@H]([C@@H](C)O)C(=O)N1)[C@@H](C)O)C(=O)N1CCC[C@H]1C(=O)N[C@@H](CO)C(=O)N[C@@H](CO)C(=O)N[C@H](C(=O)N1CCC[C@H]1C(=O)N[C@H](C(=O)NCC(=O)N[C@@H](CO)C(=O)N[C@@H](CCC(=O)O)C(=O)N[C@H](C(=O)N[C@@H](Cc1ccc(O)cc1)C(N)=O)[C@@H](C)O)C(C)C)[C@@H](C)O, also called 17R, 21P, 27P, 31P, 35E)
0.556	KCNTATCATQRLAEFLRHSSPNFGAIPSSTNVGSNTY (C20 diacid-gGlu-2xOEG on the alpha amino group of the N-terminal residue; disulfide Cys2-Cys7 and C-terminal amide as in human amylin, also called 14E, 17R, 21P, 27P)
0.082	{C20 diacid-γGlu}-KCNTATCATQRLADFLRHSSPNFGAIPSSTNVGSNTP-NH2 (disulfide 2-7; SMILES CC[C@H](C)[C@H](NC(=O)[C@H](C)NC(=O)CNC(=O)[C@H](Cc1ccccc1)NC(=O)[C@H](CC(N)=O)NC(=O)[C@@H]1CCCN1C(=O)[C@H](CO)NC(=O)[C@H](CO)NC(=O)[C@H](Cc1c[nH]cn1)NC(=O)[C@H](CCCNC(=N)N)NC(=O)[C@H](CC(C)C)NC(=O)[C@H](Cc1ccccc1)NC(=O)[C@H](CC(=O)O)NC(=O)[C@H](C)NC(=O)[C@H](CC(C)C)NC(=O)[C@H](CCCNC(=N)N)NC(=O)[C@H](CCC(N)=O)NC(=O)[C@@H](NC(=O)[C@H](C)NC(=O)[C@@H]1CSSC[C@H](NC(=O)[C@H](CCCCN)NC(=O)CC[C@H](NC(=O)CCCCCCCCCCCCCCCCCCC(=O)O)C(=O)O)C(=O)N[C@@H](CC(N)=O)C(=O)N[C@@H]([C@@H](C)O)C(=O)N[C@@H](C)C(=O)N[C@@H]([C@@H](C)O)C(=O)N1)[C@@H](C)O)C(=O)N1CCC[C@H]1C(=O)N[C@@H](CO)C(=O)N[C@@H](CO)C(=O)N[C@H](C(=O)N[C@@H](CC(N)=O)C(=O)N[C@H](C(=O)NCC(=O)N[C@@H](CO)C(=O)N[C@@H](CC(N)=O)C(=O)N[C@H](C(=O)N1CCC[C@H]1C(N)=O)[C@@H](C)O)C(C)C)[C@@H](C)O, also called 14D, 17R, 21P, 27P, 37P)
